Each block holds one binder with its values, some of them ahead of it.
Biological target: T1, GST-MYB44 (Arabidopsis, UniProt Q9FDW1 1-305)
T1 construct: MYB44, Arabidopsis; the CDS ligated to pGEX-KG; source: E. coli, purified (Glutathione Sepharose resin)
Experiment: pull-down; GST-MYB44 as bait, GST as control; purified proteins from E. coli incubated overnight at 4°C, washed four times, western blot
Conditions: both partners purified

T1 sequence (Q9FDW1 whole entry): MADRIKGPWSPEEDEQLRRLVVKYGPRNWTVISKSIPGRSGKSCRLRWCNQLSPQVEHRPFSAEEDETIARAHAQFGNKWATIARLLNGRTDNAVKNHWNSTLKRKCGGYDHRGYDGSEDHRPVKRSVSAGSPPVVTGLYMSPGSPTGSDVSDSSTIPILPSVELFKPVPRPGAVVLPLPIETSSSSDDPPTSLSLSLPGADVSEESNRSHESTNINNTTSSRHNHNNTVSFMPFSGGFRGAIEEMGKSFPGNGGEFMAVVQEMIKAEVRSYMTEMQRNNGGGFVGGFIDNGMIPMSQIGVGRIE

binding result: binds
B1: MBP-ENAP1 (natural protein, Arabidopsis, UniProt Q8VZI9 1-249, looked up)
chain: METTPETQSKTHRLPAGREDWWSEDATATLIEAWGDRYVNLNRGNLRQNDWKEVADAVNSSHGNGRPKTDVQCKNRIDTLKKKYKTEKAKPLSNWCFFDRLDFLIGPVMKKSSGAVVKSALMNPNLNPTGSKSTGSSLDDDDDDDDDDEEDDDDAGDWGFVVRKHRKVEDVDSSEGSAFRELARSILKLGEAFERIEGKKQQMMIELEKQRMEVAKELELQRMNMLMEMQLELEKSKLGKRRAASGKKL
notes: ENAP1, Arabidopsis, AT3G11100; the CDS ligated to pVP13 (His tag removed); source: E. coli, purified (Amylose resin)

binding result: binds
B2: His-HDT4 (enzyme, Arabidopsis, UniProt Q9M4T3 1-203, looked up)
chain: MEFWGIEIKPGKPFKVIQKDGFMVHASQVTLGDVEKVKKDETFAVYVKIGDDENGFMIGNLSQKFPQFSIDLYLGHEFEISHNSTSSVYLIGYRTFDAFDELDEEIDSDSELDEYMEQQIAALPQNEINPEEDDESDSDEMGLDEDDDSSDEEDVEAEAPLKVAPPSKKMPNGAFEIAKGGKKNKSSGGKKRCPFPCGPSCKK
notes: HDT4, histone deacetylase of the HD2 family, Arabidopsis; the CDS ligated to pET28a; source: E. coli, purified (Ni-NTA agarose resin)

Reference: article PMC9681084, “MYB44-ENAP1/2 restricts HDT4 to regulate drought tolerance in Arabidopsis” (PLOS Genetics, 2022)
